Experimental data: patent US10597674B2, “HPPD variants and methods of use” (BASF Agricultural Solutions Seed, US LLC, priority 2015, dated 2020)
Changes are numbered by the printed parent chain. Numbers in names are those of the source.

B1: 97 (protein)
chain: MADLYENPMGLMGFEFIEFASPTPGTLEPIFEIMGFTKVATHRSKNVHLYRQGEINLILNNEPNSIASYFAAEHGPSVCGMAFRVKDSQKAYNRALELGAQPIHIDTGPMELNLPAIKGIGGAPLYLIDRFGEGSSIYDIDFVYLEGVERNPVGAGLKVIDHLTHNVYRGRMVYWANFYEKLFNFREARYFDIKGEYTGLTSKAMSAPDGMIRIPLNEESSKGAGQIEEFLMQFNGEGIQHVAFLTDDLVKTWDALKKIGMRFMTAPGDRYYEMLEGRLPDHGEPVDQLQARGILLDGSSVEGDKRLLLQIFSETLMGPVFFEFIQRKGHSGFGPDSFKVLFESKERDQVRRGVLTAD
modifications: mutant HPPD polypeptide
B2: 99 (protein)
chain: B1 chain with R270E, H330D, S331D, F338V, V340R, K345V
modifications: mutant HPPD polypeptide
B3: 100 (protein)
chain: B1 chain with M264L, R270E, S331D, S344Q, K345M
modifications: mutant HPPD polypeptide
B4: 102 (protein)
chain: B1 chain with M264L, G268R, R270E, T315R, H330D, S331D, D336H, S344Q, K345M
modifications: mutant HPPD polypeptide
B5: 106 (protein)
chain: B1 chain with M264L, R270E, S331P, S344Q, K345M
modifications: mutant HPPD polypeptide
B6: SEQ ID NO: 24: mutant HPPD polypeptide: E335P G336H N337S A340V I345V (protein)
chain: B1 chain with G268P, R270T, H330D, S331D, D336H, K345V
modifications: mutant HPPD polypeptide
notes: mutant HPPD polypeptide: E335P G336H N337S A340V I345V
B7: SEQ ID NO: 102: mutant HPPD polypeptide: M264L P268G (Table 2: R) T270E T315R E335P G336H N337S A340V S344Q I345M (protein)
chain: B1 chain with M264L, G268R, R270E, T315R, H330D, S331D, D336H, S344Q, K345M
modifications: mutant HPPD polypeptide
B8: SEQ ID NO: 54: mutant HPPD polypeptide: P268G T270E E335P G336D N337S K339A A340V I345V (protein)
chain: B1 chain with R270E, H330D, S331D, K339A, K345V
modifications: mutant HPPD polypeptide
notes: mutant HPPD polypeptide: P268G T270E E335P G336D N337S K339A A340V I345V
B9: SEQ ID NO: 56: mutant HPPD polypeptide: P268G T270E E335P G336D N337S K339R A340V I345V (protein)
chain: B1 chain with R270E, H330D, S331D, K339R, K345V
modifications: mutant HPPD polypeptide
notes: mutant HPPD polypeptide: P268G T270E E335P G336D N337S K339R A340V I345V
B10: SEQ ID NO: 43: mutant HPPD polypeptide: R213K P268G T270E E335P G336D N337S A340V I345V (protein)
chain: B1 chain with R213K, R270E, H330D, S331D, K345V
modifications: mutant HPPD polypeptide
notes: mutant HPPD polypeptide: R213K P268G T270E E335P G336D N337S A340V I345V
B11: SEQ ID NO: 34: mutant HPPD polypeptide: P268G T270E D330H E335P G336D N337S A340R I345K (protein)
chain: B1 chain with R270E, S331D, V340R
modifications: mutant HPPD polypeptide
notes: mutant HPPD polypeptide: P268G T270E D330H E335P G336D N337S A340R I345K
B12: SEQ ID NO: 5: mutant HPPD polypeptide: E335P N337S (protein)
chain: B1 chain with G268P, R270T, H330D, S331D, D336G, V340A, K345I
modifications: mutant HPPD polypeptide
notes: mutant HPPD polypeptide: E335P N337S
B13: SEQ ID NO: 42: mutant HPPD polypeptide: A204T P268G T270E E335P G336D N337S A340V I345V (protein)
chain: B1 chain with A204T, R270E, H330D, S331D, K345V
modifications: mutant HPPD polypeptide
notes: mutant HPPD polypeptide: A204T P268G T270E E335P G336D N337S A340V I345V
B14: SEQ ID NO: 44: mutant HPPD polypeptide: R213L P268G T270E E335P G336D N337S A340V I345V (protein)
chain: B1 chain with R213L, R270E, H330D, S331D, K345V
modifications: mutant HPPD polypeptide
notes: mutant HPPD polypeptide: R213L P268G T270E E335P G336D N337S A340V I345V
B15: SEQ ID NO: 21: mutant HPPD polypeptide: E335P G336H N337S (protein)
chain: B1 chain with G268P, R270T, H330D, S331D, D336H, V340A, K345I
modifications: mutant HPPD polypeptide
notes: mutant HPPD polypeptide: E335P G336H N337S
B16: SEQ ID NO: 45: mutant HPPD polypeptide: P268G T270E T315R E335P G336D N337S A340V I345V (protein)
chain: B1 chain with R270E, T315R, H330D, S331D, K345V
modifications: mutant HPPD polypeptide
notes: mutant HPPD polypeptide: P268G T270E T315R E335P G336D N337S A340V I345V
B17: SEQ ID NO: 9: mutant HPPD polypeptide: E335P G336D N337S I345V (protein)
chain: B1 chain with G268P, R270T, H330D, S331D, V340A, K345V
modifications: mutant HPPD polypeptide
notes: mutant HPPD polypeptide: E335P G336D N337S I345V
B18: SEQ ID NO: 30: mutant HPPD polypeptide: P268S T270S E335P G336H N337S A340V I345K (protein)
chain: B1 chain with G268S, R270S, H330D, S331D, D336H
modifications: mutant HPPD polypeptide
notes: mutant HPPD polypeptide: P268S T270S E335P G336H N337S A340V I345K

System: E. coli cells expressing an HPPD polypeptide
Assay: Brown color bioassay in liquid culture, residual brown color formation (BCF), OD440 after 96 hours
Type: cell-based
Settings: brown color formation in absence of Cmpd. 1, culture supernatant after 96 hours, 5 mM HPP
Protocol: In an additional experiment, mutant HPPD polypeptides were analyzed using the principle of a colorimetric brown color assay (as, for example, described in U.S. Pat. No. 6,768,044). Bacterial cells expressing the HPPD polypeptides according to this invention were assayed in 96 well plate format (Nunc® 96 DeepWell™ plate, Sigma-Aldrich, St. Louis, USA) for HPPD polypeptides with improved HPPD inhibitor herbicide tolerance.
E. coli cells were grown in liquid LB medium (Carl Roth GmbH+Co. KG, Karlsruhe, Germany) containing the selection agent for the expression vector pSE420(RI)NX (WO2014/043435) and 5 mM para-hydroxyphenylpyruvate (HPP; Sigma-Aldrich, St. Louis, USA), in the presence of absence of the HPPD inhibitor herbicide e.g. Cmpd. 1 (1000 μM). An overnight culture of E. coli culture expressing one of the respective HPPD polypeptides according to this invention were adjusted to an OD600 of 0.3-0.5 in a final volume of 500 μL and incubated at 30 degree Celsius. Residual brown color formation was determined by measuring the brown color formation (BCF) in the presence and absence of Cmpd. […] Therefore, after 96 hours the culture was centrifuged and the supernatant of the culture was used to measure the optical density of the soluble brown pigment formation at 440 nm (OD440 nm).

Molecule	Control BCF OD440nm
B1	1.54
B2	1.52
B3	2.48
B4	2.47
B5	1.50

Same assay, conditions: brown color formation with Cmpd. 1 (1000 μM) relative to without, after 96 hours

Molecule	Residual BCF OD440nm [%]
B1	49
B2	87
B3	33
B4	26
B5	73

System: transgenic soybean T0 events
Assay: Additional greenhouse trials of T0 soybean events, leaf damage score 0-100 as percentiles
Type: in vivo
Settings: Cmpd. 1 300 g AI/ha, five days; 75th minus 25th percentile
Description: In additional greenhouse trials, 21 to 94 independent T0 soybean events per construct containing an exemplary mutant HPPD polypeptide were sprayed with the HPPD inhibitor herbicide Cmpd. […] Five days after the application, the leaf damaged area due to the HPPD inhibitor herbicide is scored in a scale from 0 (no damage) to 100 (complete bleaching). Under those conditions, the wild-type plants were completely bleached and their damage scores were in the 95-100 range.
Table 9 presents the distribution of the HPPD inhibitor herbicide damage score data as percentile for exemplary mutant HPPD inhibitor herbicide tolerant polypeptides (SEQ ID NOs). The percentiles normalize ranks of the damage score from an individual plant in a population. […] The median is the 50th percentile. Half the values had higher damage scores; half had lower damage scores. […] The difference between the 75th and 25th percentile is called the interquartile range and a marker to quantify scattering in the population. All constructs had only one single cassette insertion in the soybean genome.
In Table 9, the constructs were ranked based on injury scores according to the 75th percentile, from smallest to highest score. All exemplary HPPD polypeptide variants are better in all percentile analyses than the prior art mutant HPPD polypeptide (WO2014/043435) corresponding to SEQ ID NO:2 in this invention. The scoring of the prior art mutant HPPD polypeptide (WO2014/043435) corresponding to SEQ ID NO:2 in this invention is listed in the bottom row of Table 9.

Molecule	leaf damage score, Interquartile range
B6	10.0
B7	12.0
B8	10.0
B9	10.0
B10	10.0
B11	10.0
B12	10.0
B13	10.0
B14	11.3
B15	15.0
B16	21.3
B17	5.0
B18	5.0

Same assay, conditions: Cmpd. 1 300 g AI/ha, five days; scale 0 (no damage) to 100 (complete bleaching)

Molecule	leaf damage score, 25th percentile
B6	10.0
B7	8.0
B8	10.0
B9	10.0
B10	10.0
B11	10.0
B12	10.0
B13	10.0
B14	10.0
B15	10.0
B16	5.0
B17	10.0
B18	10.0

Same assay, conditions: Cmpd. 1 300 g AI/ha, five days; scale 0-100

Molecule	leaf damage score, 75th percentile	leaf damage score, 90th percentile	leaf damage score, Median
B6	20.0	35.0	10.0
B7	20.0	45.0	10.0
B8	20.0	62.5	10.0
B9	20.0	65.0	15.0
B10	20.0	67.0	15.0
B11	20.0	70.0	15.0
B12	20.0	72.0	15.0
B13	20.0	75.0	15.0
B14	21.3	70.0	15.0
B15	25.0	35.0	15.0
B16	26.3	67.5	15.0
B17	15.0	19.0	10.0
B18	15.0	25.0	15.0
